Measured values as given in patent US20180371090A1.

Assays:
[1] = target: His-tagged human FcγRI (human) (UniProt P12314); assay: SPR (Biacore T200), His-tagged receptor captured by anti-penta-His, antibody injected, 25 C
[2] = target: His-tagged cynomolgus FcγRIIA (cynomolgus); assay: SPR steady-state, His-captured receptor, 25 C
[3] = target: His-tagged cynomolgus FcγRIIB (cynomolgus); assay: SPR steady-state, His-captured receptor, 25 C
[4] = target: His-tagged human FcγRIIIA (F176) (human) (UniProt P08637); assay: SPR steady-state, His-captured receptor, 25 C
Sequence of His-tagged human FcγRIIIA (F176) (human) (P08637 17-208 limits assumed): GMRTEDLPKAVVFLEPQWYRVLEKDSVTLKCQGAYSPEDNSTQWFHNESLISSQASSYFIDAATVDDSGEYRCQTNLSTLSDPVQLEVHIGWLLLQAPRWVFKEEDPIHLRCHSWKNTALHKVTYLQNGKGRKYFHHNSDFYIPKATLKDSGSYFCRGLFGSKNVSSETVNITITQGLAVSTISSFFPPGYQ

[5] = target: His-tagged human FcγRIIA (H131) (human) (UniProt P12318); assay: SPR steady-state, His-captured receptor, 25 C
Sequence of His-tagged human FcγRIIA (H131) (human) (P12318 36-218 limits assumed): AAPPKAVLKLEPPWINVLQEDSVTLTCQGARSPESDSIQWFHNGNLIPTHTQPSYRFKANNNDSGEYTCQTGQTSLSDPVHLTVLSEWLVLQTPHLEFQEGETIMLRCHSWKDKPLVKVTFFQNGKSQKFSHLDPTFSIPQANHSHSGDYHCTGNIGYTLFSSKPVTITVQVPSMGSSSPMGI

[6] = target: His-tagged cynomolgus FcγRIIIA (cynomolgus) (UniProt Q8SPW2); assay: SPR steady-state, His-captured receptor, 25 C
Sequence of His-tagged cynomolgus FcγRIIIA (cynomolgus) (Q8SPW2 17-208 limits assumed): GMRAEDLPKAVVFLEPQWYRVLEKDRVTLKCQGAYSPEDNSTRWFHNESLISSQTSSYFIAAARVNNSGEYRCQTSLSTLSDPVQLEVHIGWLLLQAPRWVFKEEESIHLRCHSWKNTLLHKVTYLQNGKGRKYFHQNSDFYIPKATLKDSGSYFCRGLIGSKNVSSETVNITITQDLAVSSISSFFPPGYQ

[7] = target: His-tagged human FcγRIIIB (human) (UniProt O75015); assay: SPR steady-state, His-captured receptor, 25 C
Sequence of His-tagged human FcγRIIIB (human) (O75015 17-200 limits assumed): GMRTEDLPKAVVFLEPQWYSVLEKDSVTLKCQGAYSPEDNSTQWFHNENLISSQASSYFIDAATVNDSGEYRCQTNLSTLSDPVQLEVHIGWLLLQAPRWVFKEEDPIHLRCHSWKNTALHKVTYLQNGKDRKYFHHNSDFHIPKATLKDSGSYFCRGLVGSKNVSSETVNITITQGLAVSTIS

[8] = target: His-tagged human FcγRIIIA (V176) (human) (UniProt P08637); assay: SPR steady-state, His-captured receptor, 25 C
Sequence of His-tagged human FcγRIIIA (V176) (human) (P08637 17-208 F176V limits assumed): as the sequence (P08637 17-208 limits assumed) above, with F160V counted along it

[9] = target: His-tagged human FcγRIIA (R131) (human) (UniProt P12318); assay: SPR steady-state, His-captured receptor, 25 C
Sequence of His-tagged human FcγRIIA (R131) (human) (P12318 36-218 H167R limits assumed): as the sequence (P12318 36-218 limits assumed) above, with H132R counted along it

[10] = target: His-tagged human FcγRIIB (human) (UniProt P31994); assay: SPR steady-state, His-captured receptor, 25 C
Sequence of His-tagged human FcγRIIB (human) (P31994 46-217 limits assumed): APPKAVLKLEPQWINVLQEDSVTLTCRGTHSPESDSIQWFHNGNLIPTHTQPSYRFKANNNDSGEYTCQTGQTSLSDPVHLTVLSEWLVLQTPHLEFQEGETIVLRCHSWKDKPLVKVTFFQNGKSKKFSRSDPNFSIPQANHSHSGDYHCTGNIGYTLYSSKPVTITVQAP

Sequence of His-tagged human FcγRI (human) (P12314 16-288 limits assumed): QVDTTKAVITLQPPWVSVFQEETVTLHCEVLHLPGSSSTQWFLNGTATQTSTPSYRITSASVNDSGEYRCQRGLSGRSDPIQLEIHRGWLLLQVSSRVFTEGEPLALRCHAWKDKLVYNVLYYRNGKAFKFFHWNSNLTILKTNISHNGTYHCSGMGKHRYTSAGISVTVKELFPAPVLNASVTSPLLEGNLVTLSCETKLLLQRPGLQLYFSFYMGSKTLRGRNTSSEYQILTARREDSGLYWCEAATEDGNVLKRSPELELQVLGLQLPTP

In the case of “Wild-type IgG1 Isotype Control (antibody)”, the Kd [1] is reported as 0.0043 µM, the T1/2 [1] is reported as 15 min and the Kd [2] is reported as 4.2 µM. For the same substance, the Kd [3] was 4.2 µM, the Kd [4] was 1.3 µM and the Kd [5] was 1.1 µM. It also gave a Kd [6] of 0.6 µM, a Kd [7] of 2.3 µM and a Kd [8] of 1.5 µM.
“Wild-type IgG4 "CPPC" Isotype Control (antibody)” was tested, and the Kd [1] was 0.0139 µM, the T1/2 [1] was 5 min and the koff [1] was 0.00236 s⁻¹. It also gave a kon [1] of 171000 M⁻¹ s⁻¹, a Kd [2] of 19.3 µM and a Kd [3] of 9.6 µM. The Kd [9] was 10 µM, the Kd [4] was 26 µM and the Kd [5] was 12 µM. The Kd [6] was 5.8 µM, the Kd [10] was 9.8 µM and the Kd [8] was 10 µM.
